1 substance from patent US4388232A, “Method of producing plasma fractions free of side-effects using fast-reacting antithrombin” (Immuno Aktiengesellschaft fur Chemisch Medizinische Produkte, priority 1979, dated 1983) can be followed below.

This data set concerns NMRI mice. Briefly: LD50 test (toxicity of a preparation). To be noted: intravenous. It is filed as in vivo, mouse (NMRI). How it is done: The LD50 -test serves for determining the toxicity of a preparation. LD50 is the dose at which 50% of the animals die under experimental conditions. The preparation is intravenously injected in at least three dosages into ten NMRI ([…]) mice each, having a minimum body weight of 20 g. After an observation time of 7 days the living animals per dosage group are counted. The LD50 is calculated in accordance with Wilson and Worcester, Proc. Nat. Acad. Sci. U.S.A. 29, 114 (1943).

With “Example 11: C1-esterase inhibitor, prepared with antithrombin III and heparin”, the “tolerance in LD50 test” value (7 days observation) was “excellently tolerated”. Also, the LD50 (7 days observation, 5,300 = maximum injectable amount C1-esterase-inhibitor) is given as > 5,300 units per kg body weight.
